“Also recorded” adds a separate entry of the source.
Tests used:
[1] = tested on: mdx mice; experiment: Transplantation of Wnt-treated mouse primary myoblasts into mdx mice; format: in vivo; details: 100,000 mouse primary myoblasts
Experimental: In a clinical setting, freshly isolated satellite cells are often not readily available. Therefore, the effect of 3 h Wnt7a loading on cultured primary mouse myoblasts that were subsequently transplanted into injured muscles of immunosuppressed mdx mice (FIG. S5 A) was examined. After transplantation of 100,000 cells, the number of dystrophin-expressing myofibers was increased by 72% in muscles that were injected with Wnt7a treated myoblasts (FIG. 13B). […] In addition, the mean maximal cluster distance (dispersion) increased from 1.5 mm for Veh., to 2.0 mm for Wnt7a (FIG. 13D).
Transplantation of zsGreen-expressing satellite cells or myoblasts into mdx mice was performed as previously described (Bentzinger et al., 2013c). Before transplantation the cells were treated for 3 h with Wnt7a, Wnt5a, or Wnt3a (R&D Systems) at a concentration of 50 ng/mL for freshly isolated satellite cells or with 100 ng/mL for cultured cells. Myoblasts expressing tdTomato were transplanted into uninjured muscles of C57BL/6 mice that were implanted with an osmotic pump (Alzet) delivering FK506 (Sigma) at 2.5 mg/kg/day 3 days prior to the transplantations. In some experiments, the injection site was marked with blue fluorescent microspheres (2 μm, Life Technologies) that were added at a concentration of 1:100 (vol/vol) to the cell suspension. 10 μl of the cell-microsphere suspension was injected into the TA of each mouse using a Hamilton syringe.
Muscles frozen in liquid nitrogen were cut into 12 μm cross-sections. Cross-sections and cells were either fixed with ethanol (100%) or 2% PFA for 5 min, permeabilized with 0.1% Triton/0.1 M glycine/PBS for 10 min, blocked with 5% horse serum in PBS for several hours, and incubated with specific primary antibody in blocking buffer overnight at 4° C. Samples were subsequently washed with PBS and stained with appropriate fluorescently labeled secondary antibodies for 1 h at room temperature. After washing with PBS, samples were mounted with Permafluor (Fisher). Antibodies were as follows: chicken anti-GFP (Abcam, ab13970), mouse anti-Pax7 (DSHB), mouse anti-Dystrophin (7A10, DSHB), mouse anti-Rac1 (05-389, Millipore), mouse anti-Tubulin (Sigma, T9026), rabbit anti-Dvl2 (3224, Cell Signaling), rabbit anti-zsGreen (Clontech, 632474), rabbit anti-Laminin (Sigma, L9393), rabbit anti-HA (Millipore, 07-221).

[2] = tested on: primary myoblasts; experiment: Proliferation of primary myoblasts over five days; format: cell-based; details: 3 h exposure; various concentrations; over 5 days
Experimental: The proliferation of primary myoblasts following a 3 h exposure to various concentrations of Wnt7a was analyzed to control for the effect being due to changes in the cell cycle status of the transplanted cells.

[3] = tested on: satellite cells; experiment: Live imaging of satellite cells on single cultured myofibers; format: cell-based, mouse; details: Wnt7a 1.5 μg/mL; compared to Veh.
Experimental: The effect of Wnt7a on satellite cell migration was measured using a time lapse imaging technique previously employed to monitor satellite cells on single muscle myofibers (Siegel et al., 2009). Wnt7a increased the mean velocity of satellite cells by 31% when compared to Veh. (FIG. 2F). […] (FIG. 2G).
Single cell imaging of cells transfected with Fzd7-YFP or YFP was performed on an LSM710 confocal microscope under 5% CO2 at 37° C. in phenol-red free DMEM (Life technologies) containing 10% FBS. Imaging of satellite cells on fibers was performed as described (Siegel et al., 2009). For live imaging of satellite cells on myofibers, Wnt7a was used at a concentration of 1.5 μg/mL. Satellite cell time-lapse microscopy was performed using a Leica DMI 5100 inverted microscope and MetaMorph 7.6.1 Software (Molecular Devices) with time points being acquired every 7 minutes in a stagetop incubator (LiveCell Imaging). ImageJ analyzed the time-lapse data to calculate the velocity, defined as distance (um)/time (hr), between time points and the average velocity of each cell was calculated. The maximum velocity is defined as the highest velocity obtained by a single cell during the tracking period.

[4] = tested on: C2C12 cells; experiment: Scratch migration assay, C2C12 cells; format: cell-based; details: Mitomycin-C treated, 24 h, Wnt 100 ng/mL, vs Veh. or empty vector
Experimental: Cellular polarization is indicative of increased motility (de Forges et al., 2012). Scratch assays were used to test whether Wnt7a and Fzd7 polarization affect cell motility. To exclude effects on the localization of cells arising from altered rates of proliferation, cells were treated with Mitomycin-C.
Following plasmid transfection or application of Wnts (R&D Systems), the cells were treated with Mitomycin-C for 2 h (50 μg/mL). Subsequently, the monolayer of cells was scraped in a straight line. The plates were then extensively washed with culture medium and incubated for 24 h before analysis. Analysis was performed using DAPI staining after matching the reference points and enumeration of DAPI-stained nuclei in the scar was performed. Unless otherwise indicated, Wnt7a and Wnt3a were used at a concentration of 100 ng/mL in scratch assays. Monodansylcadaverine (MDC, 30432, Sigma) was used in scratch assays at a concentration of 50 μm.

[5] = tested on: Rac1; experiment: Rac1 activation assay in mouse primary myoblasts; format: cell-based; details: Wnt7a overexpression (Wnt7a-HA retrovirus) vs empty virus
Description: Wnt7a signaling in satellite cells involves Rac1. Polarized peripheral Fzd7-tdTomato colocalized with GFP-Rac1 in C2C12 cells (FIG. 3A). It was hypothesized that the small GTPase Rac1 might also be involved in Wnt7a mediated cell polarization and migration. […] Various forms of Wnt signaling require Disheveled (Dvl) proteins.
For co-immunoprecipitation (CoIP) experiments and the Rac1 activation assay, satellite cell-derived primary myoblasts were infected with retroviruses generated from empty pHAN or from pHAN-Wnt7a-HA (Kuroda et al., 2013). Dvl2 knockdown was performed with an ON-TARGETplus siRNA SMARTpool (L-040921-01, Thermo Fisher Scientific) (Wu et al., 2008) using Lipofectamine RNAiMAX (Life Technologies) according to the manufacturer's instructions. As a control for the knockdown, a non-silencing siRNA SMARTpool was used (D-001810-10, Thermo Fisher Scientific). Cell extracts were obtained through RIPA buffer lysis in the presence of a protease inhibitor cocktail (Nacalai). For CoIP of Rac1 with Dvl2, rabbit anti-Dvl2 antibody was coupled to Protein A Dynabeads (Life Technologies). Denaturing SDS-PAGE was performed using standard techniques. Rac1 activation assay was performed according to the manufacturer's instructions (Pierce).

B1: Wnt7a: non-canonical Wnt polypeptide (R&D Systems) used to treat or load myogenic cells (protein, UniProt O00755 32-349, looked up)
Protein Wnt-7a: LGASIICNKIPGLAPRQRAICQSRPDAIIVIGEGSQMGLDECQFQFRNGRWNCSALGERTVFGKELKVGSREAAFTYAIIAAGVAHAITAACTQGNLSDCGCDKEKQGQYHRDEGWKWGGCSADIRYGIGFAKVFVDAREIKQNARTLMNLHNNEAGRKILEENMKLECKCHGVSGSCTTKTCWTTLPQFRELGYVLKDKYNEAVHVEPVRASRNKRPTFLKIKKPLSYRKPMDTDLVYIEKSPNYCEEDPVTGSVGTQGRACNKTAPQASGCDLMCCGRGYNTHQYARVWQCNCKFHWCCYVKCNTCSERTEMYTCK
- increase in number of dystrophin-expressing myofibers ([1]; 3 h loading (100 ng/mL), immunosuppressed mdx mice): 72%
- hypertrophy of dystrophin-expressing myofibers ([1]; 3 h loading, mdx mice): 87%
- mean maximal cluster distance (dispersion) ([1]; 3 h loading, mdx mice): 2.0 mm
- rate of proliferation of primary myoblasts [2]: No change in the rate of proliferation
- higher directional persistence [3]: 36%
- increase in mean velocity of satellite cells [3]: 31%
- mean maximal velocity [3]: not significantly different; also recorded: not substantially different
- increase in cell migration [4]: 443%
- activation of Rac1 [5]: significantly increased the activation of Rac1
